These results are taken from patent US20170145086A1 (VISTERRA, published 2017).

In assay [1] the target is T1, HA-GCN4 hAPRIL (amino acid residues 105-250) (human, UniProt O75888 105-250).
T1 construct: Bought (R&D Systems); also called HA-tagged GCN4 human APRIL; HA-GCN4-huAPRIL; not shown: N-terminal HA tag; GCN4 isoleucine zipper oligomerization domain
T1 sequence: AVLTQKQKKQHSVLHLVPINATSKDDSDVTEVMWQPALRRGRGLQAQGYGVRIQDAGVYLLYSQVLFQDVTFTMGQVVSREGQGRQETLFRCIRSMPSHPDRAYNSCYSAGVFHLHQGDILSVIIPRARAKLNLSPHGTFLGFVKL
The assay is described as follows: blocking ELISA, 4-parameter fit; blocked: human APRIL binding to human BCMA-Fc. On the procedure: (§1) FIGS. 19A-19B depict the antibody inhibition of APRIL binding to TNFSF receptors TACI (FIG. 19A) and BCMA (FIG. 19B). Assay is based on blocking ELISA using recombinant human APRIL (R&D Systems) and Human TACI-Fc. Inhibition was analyzed by non-linear regression using a four parameter fit.
(§2) Recombinant TACI-Fc or BCMA-Fc was coated on 96 well plates in 0.1 M carbonate-bicarbonate buffer (pH 9.6), overnight at 4° C. Plates were washed three times with 1×PBST (PBS+0.025% Tween 20) followed by blocking with 1% BSA in 1×PBS, 37° C. for 1 hour. All subsequent wash steps were carried out with 1×PBST. To assess antibody blocking, either 15 ng/mL or 50 ng/mL HA-GCN4-huAPRIL was preincubated with varying antibody concentrations ranging from 0.03-30 μg/mL in binding buffer comprised of 1% BSA and 0.025% Tween-20 in 1×PBS. Preincubation was carried out at 30° C. for 1 hour with mixing. Antibody-APRIL premix with 50 ng/mL APRIL or 15 ng/mL APRIL was then added to TACI-Fc coated or BCMA-Fc coated plates, respectively, and incubated for an additional hour at 30° C. HA-tagged APRIL binding to either receptor was quantified using a goat polyclonal anti-HA tag-HRP antibody (Abcam) added at a 1:10000 dilution followed by colorimetric development using 100 μl/well of freshly prepared TMB substrate (KPL) carried out for up to 30 minutes at room temperature before quenching enzymatic reaction by the addition of 1N sulfuric acid. ELISA signal was quantified by absorbance at 450 nm. ELISA data was analyzed by non-linear regression. IC₅₀ values were calculated based on a 4 parameter fit of antibody titration curves. […] Non-blocking antibodies Aprly-1 or Aprly-5 (Enzo Biosciences) were used as negative controls. Mouse specific, blocking antibody aprily-1-1 (Adipogen) was generally used as a positive control in experiments using mouse APRIL (HA-GCN4-mAPRIL).

Assay [2] addresses human BAFF (TNFSF13B, AB Biosciences) (human, UniProt Q9Y275 134-285, limits assumed). The assay is described as follows: indirect ELISA, cytokine coated. The procedure:
(§3) Selected anti-APRIL antibodies were evaluated for potential cross-reactivity with other members of the TNFa superfamily (TNFSF) family of cytokines, including: human TNFα (TNFSF2; Adipogen), human […] (TNFSF4, Adipogen), human FasL (TNFSF6, Adipogen), human TRAIL (TNFSF10, Adipogen), human RANKL (TNFSF11; Adipogen), human Tweak (TNFSF12; Abcam), human and mouse BAFF (TNFSF13B, AB Biosciences and Adipogen, respectively), and human LIGHT (TNFSF14, Adipogen). These cytokines share variable degree of sequence as well as higher order structural homologies. Among them, BAFF appears to be the most closely related to APRIL, with 29% identity and 53% amino acid sequence similarity.
(§4) Binding was evaluated by an indirect ELISA protocol using similar methods described for evaluation of APRIL binding; cytokines were immobilized to ELISA plate at 50 ng per well and then exposed to a solution of each of the test antibodies at a fixed concentration of 10 μg/ml Anti-human or anti-mouse Ig-HRP polyclonal antibody conjugates (Jackson Laboratories) were used for detection of antibody binding. The results presented in FIG. 36 indicated eleven of the twelve antibodies tested in this assay to specifically bind APRIL with no measurable cross-reactivity with the other TNFSF members substantially above assay background.
For orientation: In an ELISA, binding on a coated surface is turned into a signal by an enzyme label.

The target in assay [3] is human LIGHT (TNFSF14, Adipogen) (human, UniProt O43557 89-240, limits assumed). The assay can be described thus: indirect ELISA, cytokine coated. On the procedure:
as §3, §4

Assay [4] addresses T2, human RANKL (TNFSF11; Adipogen) (human, UniProt O14788 152-317, limits assumed).
T2 sequence (looked up): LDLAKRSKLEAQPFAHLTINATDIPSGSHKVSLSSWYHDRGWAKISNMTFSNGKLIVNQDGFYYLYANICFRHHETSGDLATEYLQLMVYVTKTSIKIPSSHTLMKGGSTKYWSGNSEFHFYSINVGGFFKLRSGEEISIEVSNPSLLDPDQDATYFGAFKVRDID
The assay is described as follows: indirect ELISA, cytokine coated. On the procedure: as §3, §4

The target in assay [5] is human TRAIL (TNFSF10, Adipogen) (human, UniProt P50591 95-281, limits assumed). The assay is described as follows: indirect ELISA, cytokine coated. The procedure: as §3, §4
In assay [6] the target is mouse BAFF (TNFSF13B, Adipogen) (mouse, UniProt Q9WU72 127-309, limits assumed). The assay can be described thus: indirect ELISA, cytokine coated. The procedure: as §3, §4
Assay [7] addresses human TNFα (TNFSF2; Adipogen) (human, UniProt P01375 85-233, limits assumed). The assay is described as follows: indirect ELISA, cytokine coated. On the procedure:
as §3, §4

The target in assay [8] is T3, human Tweak (TNFSF12; Abcam) (human, UniProt O43508 94-249, limits assumed).
T3 sequence (looked up): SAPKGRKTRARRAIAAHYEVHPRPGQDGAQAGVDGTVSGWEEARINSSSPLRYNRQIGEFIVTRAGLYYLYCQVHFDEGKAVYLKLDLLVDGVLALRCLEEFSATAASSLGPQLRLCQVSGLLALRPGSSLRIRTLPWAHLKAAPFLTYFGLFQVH
The assay can be described thus: indirect ELISA, cytokine coated. The procedure:
as §3, §4

Assay [9] concerns the target T1, HA-GCN4 hAPRIL (amino acid residues …). The assay can be described thus: blocking ELISA; blocked: human APRIL binding to human BCMA-Fc. More on the design: concentration or dose not given beside the values. The procedure: as §1, §2

Chain of human BAFF (TNFSF13B, AB Biosciences) (Q9Y275 134-285 limits assumed): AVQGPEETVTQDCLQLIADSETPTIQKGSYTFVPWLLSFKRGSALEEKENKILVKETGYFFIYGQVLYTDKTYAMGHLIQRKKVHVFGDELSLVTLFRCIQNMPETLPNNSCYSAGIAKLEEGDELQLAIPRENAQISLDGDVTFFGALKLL
Chain of human TNFα (TNFSF2; Adipogen) (P01375 85-233 limits assumed): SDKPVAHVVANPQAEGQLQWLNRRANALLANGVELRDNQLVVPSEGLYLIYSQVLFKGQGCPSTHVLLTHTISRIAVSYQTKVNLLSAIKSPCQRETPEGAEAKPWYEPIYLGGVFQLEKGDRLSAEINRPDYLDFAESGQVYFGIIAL
Chain of mouse BAFF (TNFSF13B, Adipogen) (Q9WU72 127-309 limits assumed): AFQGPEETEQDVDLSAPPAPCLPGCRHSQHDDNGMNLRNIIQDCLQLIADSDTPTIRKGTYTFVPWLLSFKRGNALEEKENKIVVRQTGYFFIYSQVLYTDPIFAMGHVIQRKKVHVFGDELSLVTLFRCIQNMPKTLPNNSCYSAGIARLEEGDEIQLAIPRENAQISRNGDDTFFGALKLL
Chain of human LIGHT (TNFSF14, Adipogen) (O43557 89-240 limits assumed): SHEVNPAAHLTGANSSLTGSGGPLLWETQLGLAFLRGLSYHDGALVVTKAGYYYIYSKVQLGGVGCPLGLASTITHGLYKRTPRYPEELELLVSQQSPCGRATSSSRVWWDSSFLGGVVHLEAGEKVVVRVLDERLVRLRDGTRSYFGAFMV
Chain of human TRAIL (TNFSF10, Adipogen) (P50591 95-281 limits assumed): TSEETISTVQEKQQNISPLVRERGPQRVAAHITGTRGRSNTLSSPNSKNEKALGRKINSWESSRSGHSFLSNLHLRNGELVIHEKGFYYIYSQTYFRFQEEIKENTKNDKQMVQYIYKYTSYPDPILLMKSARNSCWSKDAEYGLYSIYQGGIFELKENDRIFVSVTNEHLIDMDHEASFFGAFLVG

B1: 4237 (antibody, V domains shown)
VH: QAHLKESGPGLVAPSQSLSITCTVSGFSLTDYDVHWVRQSPGKGLEWLGVIWNDGSTDYNTAFISRLTISKDNSKSQVFFKMNSLQADDTAIYYCARNWYGGYWFAYWGQGTLVTVSA
VL: DIQMTQSPASLSASAGETVTITCRSSENIYSYLAWYQQKQGKSPQLLVYNANALAEGVPSRFSGSGSVTQFSLKINSLQPEDFGSYYCQHHYGTPFTFGSGTKLEIK
notes: also called monoclonal antibody 4237
What is called IC50 is the concentration that inhibits the measured activity by half. What is called % Inhibition is the relative decrease from the control value, in per cent. The molecule B1 gave an IC50 in [1] of 0.56 nM. In addition, the binding result in assay [2], in assay [3], in assay [4], in assay [5], in assay [6] and in assay [7] was “no binding (tested: 10 µg/ml (p-1128))” throughout. Further, the binding result in assay [8] is reported as “no binding (tested: 10 µg/ml (p-1128))”. The “% Inhibition” value in [9] was found to be 93%.

B2: monoclonal antibody 3833 (antibody, V domains shown)
VH: QVQLQQSGAELVRPGTSVKMSCKAAGYTFTNYWIGWVKQRPGHGLEWIGDIYPGGIGGGYTKYNEKFKGKATLTADTSSSTAYMQLGSLTSEDSAIYFCSRSETGRAMDYWGQGTSVTVSS
VL: DIQMTQSPSSLSASLGGKVTITCKASQDINKYIAWYQHKPGKGPRLLIHYTSTLKPGIPSRFSGSGSGRDYSFSISDLEPEDIATYYCLQYDNLNTFGGGTKLEIK
notes: mouse-derived
Molecule B2 came in with an IC50 in [1] of 2.7 nM. Moreover, the binding result in assay [2], in [3], in [4], in [5], in assay [6] and in assay [7] was “no binding (tested: 10 µg/ml (p-1128))” each time. Also, in assay [8], the binding result is “no binding (tested: 10 µg/ml (p-1128))”. The “% Inhibition” value in [9] was 96%.
